EC50 data for 12 compounds are collected here from patent publication US8268779B2, “Pharmaceutical composition comprising oxyntomodulin derivatives and a method for reducing body weight using the composition” (Merck Sharp & Dohme Corp., priority 2006, dated 2012).

Non-standard residues stand in square brackets, D forms with d. Residues, ends and D or L forms follow the SMILES beside them. No end group written: not given here. *: point of attachment. C3 = cysteine residue PEGylated via the side-chain thiol with branched methoxyPEG [(mPEG)2] of 40 kDa (Cys(mPEG)2 40 kDa); (mPEG)2 40 kDa = C3 = Cys(mPEG)2 40 kDa, cysteine PEGylated via side-chain thiol with branched mPEG of 40 kDa; Desaminohistidyl = O=C(CCc1c[nH]cn1)*; Met(O) = CS(=O)CC[C@H](N)C(=O)O; Aib = CC(C)(N)C(=O)O

For test [1], the target named is T1, hGLP-1R (Homo sapiens, UniProt P43220). Nature of the test: EC50 (hGLP-1R), nM | "+DPP-IV". The protocol:
(§1) Table printed on a drawing sheet, FIG.17
(§2) First copying reader's note: The "+DPP-IV" column is the hGLP-1R EC50 measured after incubation with DPP-IV, so stability is shown as a potency shift against the "-DPP-IV" column.
(§3) Where the first naming reader finds the target: head: EC50 (hGLP-1R), nM

In test [2] the target is T1, hGLP-1R. Nature of the test: EC50 (hGLP-1R), nM | "-DPP-IV". The procedure: as §1
Head of the field: EC50 (hGLP-1R), nM | "-DPP-IV"
as §2, §3

Consider `CSCC[C@H](NC(=O)[C@H](CC(C)C)NC(=O)[C@H](Cc1c[nH]c2ccccc12)NC(=O)[C@H](CCC(N)=O)NC(=O)[C@@H](NC(=O)[C@H](Cc1ccccc1)NC(=O)[C@H](CC(=O)O)NC(=O)[C@H](CCC(N)=O)NC(=O)[C@H](C)NC(=O)[C@H](CCCNC(=N)N)NC(=O)[C@H](CCCNC(=N)N)NC(=O)[C@H](CO)NC(=O)[C@H](CC(=O)O)NC(=O)[C@H](CC(C)C)NC(=O)[C@H](Cc1ccc(O)cc1)NC(=O)[C@H](CCCCN)NC(=O)[C@H](CO)NC(=O)[C@H](Cc1ccc(O)cc1)NC(=O)[C@H](CC(=O)O)NC(=O)[C@H](CO)NC(=O)[C@@H](NC(=O)[C@H](Cc1ccccc1)NC(=O)[C@@H](NC(=O)CNC(=O)[C@H](CC(=O)O)NC(=O)C(C)(C)NC(=O)[C@@H](N)Cc1c[nH]cn1)[C@@H](C)O)[C@@H](C)O)C(C)C)C(=O)N[C@@H](CC(N)=O)C(=O)N[C@H](C(=O)N[C@@H](CCCCN)C(N)=O)[C@@H](C)O` [OXM131] (H-H[Aib]DGTFTSDYSKYLDSRRAQDFVQWLMNTK-NH2; N-terminus assumed), for which the half-maximal effective concentration (EC50) in test [1] was 2.2 nM; in test [2], 0.9 nM.

Take “H2αDGTFTSDYSKYLDSRRAC3DFVQWLmNTKRNRNNIA-CONH2 ([Desaminohistidyl][Aib]DGTFTSDYSKYLDSRRAC((mPEG)2 40 kDa)DFVQWL[Met(O)]NTKRNRNNIA-NH2) [OXM129]”: the EC50 is 123 nM in test [1] and 25 nM in test [2]. The corresponding values for “H2αQGTFTSDYSKYLDSRRAQDFVQWLmNTKRNRNNIAC3-CONH2 (XXQGTFTSDYSKYLDSRRAQDFVQWLXNTKRNRNNIAX; Aib2, D-Met, C-terminal amide, conjugated Cys; Synthetic peptide based on the human oxyntomodulin sequence) [OXM113]” are 92.3 nM and 93.3 nM. The corresponding values for “H2αQGTFTSDYSKYLDSRRAQDFVQWLmNTKRNRNNIAC4-CONH2 (XXQGTFTSDYSKYLDSRRAQDFVQWLXNTKRNRNNIAX; Aib2, D-Met, C-terminal amide, conjugated Cys; Synthetic peptide based on the human oxyntomodulin sequence) [OXM114]” are 0.05 nM and 0.06 nM. The corresponding values for “H2αQGTFTSDYSKYLDSRRAQDFVQWLmNTKRNRNNIAC5-CONH2 (XXQGTFTSDYSKYLDSRRAQDFVQWLXNTKRNRNNIAX; Aib2, D-Met, C-terminal amide, modified Cys; Synthetic peptide based on the human oxyntomodulin sequence) [OXM112]” are 10.9 nM and 6.9 nM.

“HαDGTFTSDYSKYLDSRRAC3DFVQWLmNTKRNRNNIA-CONH2 [OXM125]”: the figures for the 50% effective concentration (EC50) in test [1] and in test [2] were 42.5 nM and 3.9 nM, respectively. In test [1], “HαDGTFTSDYSKYLDSRRAQDFVQWLmNTKRNRNNIAC3-CONH2 (H[Aib]DGTFTSDYSKYLDSRRAQDFVQWL[Met(O)]NTKRNRNNIAC((mPEG)2 40 kDa)-NH2) [OXM117, (mPEG)240 kDa conjugate made with MPEG2-MAL-40K (NEKTAR)]” registered an EC50 of 41.3 nM. This lies in the double-digit nanomolar range.

As for “HαDGTFTSDYSKYLDSRRAQDFVQWLmNTKRNRNNIAC4-CONH2 [OXM118]”, the concentration for a half-maximal effect (EC50) in test [1] was less than 0.5 nM; in test [2], 0.025 nM. The corresponding values for “HαQGTFTSDYC3KYLDSRRAQDFVQWLmNTKRNRNNIA-CONH2 [OXM121]” are greater than 125 nM and greater than 125 nM. As for “HαQGTFTSDYSC3YLDSRRAQDFVQWLmNTKRNRNNIA-CONH2 [OXM124]”, the EC50 in test [1] and in test [2] was greater than 100 nM in each case. Turning to “HαQGTFTSDYSKYLDSRRAC3DFVQWLMNTKRNRNNIA-CONH2 (H[Aib]QGTFTSDYSKYLDSRRA[C3]DFVQWLMNTKRNRNNIA-NH2) [OXM103]”, the results for the EC50 in test [1] and in test [2] were 12.7 nM and 6.2 nM, respectively.

Take “HαQGTFTSDYSKYLDSRRAQC3FVQWLMNTKRNRNNIA-CONH2 (HXQGTFTSDYSKYLDSRRAQXFVQWLMNTKRNRNNIA; Aib2, C-terminal amide, conjugated Cys; Synthetic peptide based on the human oxyntomodulin sequence) [OXM105]”: the half-maximal effective concentration (EC50) in test [1] turned out to be 36.7 nM; in test [2], 28.5 nM.
